Molecular target: hemagglutinin H1 (A/California/04/2009) (influenza A virus A/California/04/2009 …, UniProt P26140 18-529)
Test: yeast surface display titration

B1: SB24alt1-1 (designed binder)
chain: ASGMLAISMDTDKISNSFEDCKYFQLYVLSAGWTNTIFNDESGKEEIVKMSVDAIICKNISEENYKKFSKKIEIYHAEGDDVDKNISLFLEGELSKISNP
binding result: no binding

B2: SB24solo2 (designed binder)
chain: ASGMLAISMDTDKISNSFEDCKYFLIELKSAGWTNTIFNDESGKEEIVKMGVDAIICKNISEENYKKFSKKIEIYHAEGDDVNKNISLFLEGELSKISNP
binding result: no binding
